The experiment concerns the target mature Zika virus (ZIKV) virion, icosahedral shell of 180 copies each of the E protein and M protein (Zika virus). Kind of experiment: cryo-EM structure; purified ZIKV virions (10 mM Tris-HCl pH 8.0, 120 mM NaCl, 1 mM EDTA) mixed with purified Fab (15 mM Tris-HCl pH 8, 150 mM NaCl) at E protein:Fab molar ratio 1:2; single particle analysis with icosahedral symmetry, 4.1 Å.

B1: Fab of monoclonal antibody ZAb_FLEP (Fab, V domains shown)
VH: EVQLLESGGGLVQPGGSLRLSCAASGFSFSTYSMHWVRQAPGKGLEWVSAISGEGDSAYYADSVKGRFTISRDNSKNTLYLQMNKVRAEDTAVYYCVGGYSNFYYYYTMDAWGQGTMVTVSS
VL: DIVMTQSPASLSLSPGERATLSCRATQSISTFLAWYQQKPGQAPRLLIYDASTRASGIPARFSGSRSGTDFTLTITRLEPEDFAVYYCQQRYNWPPYSFGQGTKLEIK
Consider B1, for which the stoichiometry N (Fab molecules per virion) worked out at 120.

(Values after paper PMC7337043.)
